Data: paper PMC10234888, “Upregulation of glycolytic enzyme PFKFB3 by deubiquitinase OTUD4 promotes cardiac fibrosis post myocardial infarction” (Journal of Molecular Medicine (Berlin, Germany), 2023)

Target: T1, OTUD4 human recombinant protein (human, UniProt Q01804 1-1114)
T1 construct: deubiquitinase OTUD4, human, recombinant protein from Origene; No catalogue number is printed; also called deubiquitinase OTUD4; source: bought: Origene Technologies, Inc
T1 sequence (looked up): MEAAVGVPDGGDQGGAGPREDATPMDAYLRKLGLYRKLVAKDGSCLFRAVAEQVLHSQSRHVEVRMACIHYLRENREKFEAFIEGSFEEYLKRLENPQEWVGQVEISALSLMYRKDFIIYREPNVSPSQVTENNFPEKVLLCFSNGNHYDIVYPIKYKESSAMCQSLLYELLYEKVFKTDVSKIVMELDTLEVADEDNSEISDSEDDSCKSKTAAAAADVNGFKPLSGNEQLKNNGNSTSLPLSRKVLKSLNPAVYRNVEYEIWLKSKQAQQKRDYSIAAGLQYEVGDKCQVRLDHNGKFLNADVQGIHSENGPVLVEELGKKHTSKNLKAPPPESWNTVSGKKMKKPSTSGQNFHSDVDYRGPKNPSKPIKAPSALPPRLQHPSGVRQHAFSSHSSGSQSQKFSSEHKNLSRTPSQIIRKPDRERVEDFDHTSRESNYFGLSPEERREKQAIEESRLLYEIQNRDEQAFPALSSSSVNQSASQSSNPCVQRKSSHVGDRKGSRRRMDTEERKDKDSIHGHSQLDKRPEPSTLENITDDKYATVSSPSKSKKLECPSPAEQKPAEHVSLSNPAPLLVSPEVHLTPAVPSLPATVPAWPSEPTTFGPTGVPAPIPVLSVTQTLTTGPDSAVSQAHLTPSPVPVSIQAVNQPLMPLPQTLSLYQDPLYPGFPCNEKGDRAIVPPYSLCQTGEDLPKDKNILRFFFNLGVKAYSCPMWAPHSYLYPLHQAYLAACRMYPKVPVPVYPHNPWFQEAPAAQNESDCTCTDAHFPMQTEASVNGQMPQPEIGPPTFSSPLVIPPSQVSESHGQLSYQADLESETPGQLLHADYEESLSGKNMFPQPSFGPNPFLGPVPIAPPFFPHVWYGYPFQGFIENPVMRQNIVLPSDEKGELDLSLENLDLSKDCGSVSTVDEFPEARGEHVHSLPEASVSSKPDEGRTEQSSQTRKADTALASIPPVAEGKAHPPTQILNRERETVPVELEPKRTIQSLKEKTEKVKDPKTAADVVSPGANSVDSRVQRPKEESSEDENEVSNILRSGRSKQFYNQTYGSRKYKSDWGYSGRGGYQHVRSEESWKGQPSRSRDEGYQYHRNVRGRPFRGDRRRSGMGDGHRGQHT
Test: SPR; Biacore T200; OTUD4 on a CM5 chip by amine coupling; various concentrations of PFKFB3 injected over the OTUD4 surface
Settings: both partners purified

B1: human recombinant PFKFB3 protein (enzyme, UniProt Q16875 1-520, looked up)
chain: MPLELTQSRVQKIWVPVDHRPSLPRSCGPKLTNSPTVIVMVGLPARGKTYISKKLTRYLNWIGVPTKVFNVGEYRREAVKQYSSYNFFRPDNEEAMKVRKQCALAALRDVKSYLAKEGGQIAVFDATNTTRERRHMILHFAKENDFKAFFIESVCDDPTVVASNIMEVKISSPDYKDCNSAEAMDDFMKRISCYEASYQPLDPDKCDRDLSLIKVIDVGRRFLVNRVQDHIQSRIVYYLMNIHVQPRTIYLCRHGENEHNLQGRIGGDSGLSSRGKKFASALSKFVEEQNLKDLRVWTSQLKSTIQTAEALRLPYEQWKALNEIDAGVCEELTYEEIRDTYPEEYALREQDKYYYRYPTGESYQDLVQRLEPVIMELERQENVLVICHQAVLRCLLAYFLDKSAEEMPYLKCPLHTVLKLTPVAYGCRVESIYLNVESVCTHRERSEDAKKGPNPLMRRNSVTPLASPEPTKKPRINSFEEHVASTSAALPSCLPPEVPTQLPGQNMKGSRSSADSSRKH
notes: phosphofructokinase-2/fructose-2,6-bisphosphatase 3 (PFKFB3), human, recombinant protein from Origene; No catalogue number is printed; also called phosphofructokinase-2/fructose-2,6-bisphosphatase 3; source: bought: Origene
Kd: 250 nM
